Legend:
Type in all cases: cell-based
Aeromonas hydrophila = test: MIC against Gram-negative bacteria: Aeromonas hydrophila; settings: 5×10^5 CFU/mL; for MIC (μg/mL) A. hydrophila: 10 h cultivation at 37° C.
Procedure: (§1) 1. Gram-negative bacteria, such as E. coli BL21, Pseudomonas aeruginosa, Klebsiella pneumonia, Enterobacter cloacae, Aeromonas hydrophila, Citrobacter diversus, Moraxella catarrhalis, Proteus mirabilis, Proteus vulgaris, Serratia marcescens, etc were streaked on solid LB medium and cultured respectively. Then, typical clones were picked, inoculated into common liquid LB medium respectively, and cultured at 37° C. with shaking at 185 rpm until the McFarland specific turbidity was 0.5. The bacterial culture of each of Gram-negative bacteria was centrifuged at 4000×g for 3 min, the supernatant was discarded, and the thalli were resuspended with fresh LB medium.
(§2) 2. The above-mentioned bacterial suspensions were diluted and inoculated into 96-well plates with the final concentration of the bacterial suspension being 5×10^5 CFU/mL per well.
(§3) 3. Each of the purified human-originated EGF domain proteins (PRT1 to PRT1498 in Table 1) was added to each of the above wells and subjected to two-fold serial dilution in concentration. Three parallel wells were set up for each concentration in the gradient.
(§4) 4. The above-mentioned 96-well plates were placed and cultured at 37° C. in shaking incubator shaking at 175 rpm. […] The minimal inhibitory concentration MIC is defined as the lowest concentration of the recombinant protein at which there is no growth of the bacteria.

Moraxella catarrhalis = test: MIC against Gram-negative bacteria: Moraxella catarrhalis; settings: 5×10^5 CFU/mL; for MIC (μg/mL) M. catarrhalis: 10 h cultivation at 37° C.
Procedure: as §1, §2, §3, §4

Pseudomonas aeruginosa = test: MIC against Gram-negative bacteria: Pseudomonas aeruginosa; settings: 5×10^5 CFU/mL; for MIC (μg/mL) P. aeruginosa: 10 h cultivation at 37° C.
Procedure: as §1, §2, §3, §4

Citrobacter diversus = test: MIC against Gram-negative bacteria: Citrobacter diversus; settings: 5×10^5 CFU/mL; for MIC (μg/mL) C. diversus: 10 h cultivation at 37° C.
Procedure: as §1, §2, §3, §4

Proteus vulgaris = test: MIC against Gram-negative bacteria: Proteus vulgaris; settings: 5×10^5 CFU/mL; for MIC (μg/mL) P. vulgaris: 10 h cultivation at 37° C.
Procedure: as §1, §2, §3, §4

Enterobacter cloacae = test: MIC against Gram-negative bacteria: Enterobacter cloacae; settings: 5×10^5 CFU/mL; for MIC (μg/mL) E. cloacae: 10 h cultivation at 37° C.
Procedure: as §1, §2, §3, §4

Serratia marcescens = test: MIC against Gram-negative bacteria: Serratia marcescens; settings: 5×10^5 CFU/mL; for MIC (μg/mL) S. marcescens: 10 h cultivation at 37° C.
Procedure: as §1, §2, §3, §4

Klebsiella pneumonia = test: MIC against Gram-negative bacteria: Klebsiella pneumonia; settings: 5×10^5 CFU/mL; for MIC (μg/mL) K. pneumonia: 10 h cultivation at 37° C.
Procedure: as §1, §2, §3, §4

E. coli BL21 = test: MIC against Gram-negative bacteria: E. coli BL21; settings: 5×10^5 CFU/mL; for MIC (μg/mL) E. coli BL21: 10 h cultivation at 37° C.
Procedure: as §1, §2, §3, §4

E. coli DH5α = test: Antibacterial activity: MIC and growth curve against E. coli DH5α in 96-well plate; settings: minimal inhibitory concentration against E. coli DH5α; 96-well plate, 5×10^5 CFU/mL, 37° C., judged after 8 h
Procedure: 1. E. coli DH5α was exemplified. E. coli DH5α was streaked and cultured on LB solid medium. Then, a typical clone was picked and inoculated into common LB liquid medium, cultured at 37° C. with shaking at 185 rpm until the logarithmic growth phase was reached (OD600 of about 0.5). The bacterial culture was centrifuged at 4000×g for 3 min, the supernatant was discarded, and the thalli were resuspended with fresh LB medium.
2. The above-mentioned bacterial suspension was diluted and inoculated into a 96-well plate with the total volume of 100 μL per well and a bacterial count of 5×10^5 CFU/mL.
3. The recombinant protein hF VII-EGF1 was added to the above-mentioned wells with the final protein concentration in the well of the highest protein concentration being 50 μg/mL. Basing on this final concentration, a two-fold serial dilution was performed till a protein concentration gradient consisting of 50, 25, and 12.5 μg/mL was set up. Three parallel wells were set up for each concentration in the gradient.
as §4, with “plate was” for “plates were”, “rpm. Samples were taken every 30 min, the absorbance values were determined at 600 nm wavelength under a ultra violet spectrophotometer, and an inhibition curve was plotted.” for “rpm.”
According to the experimental procedures in Example 14, the minimal inhibitory concentrations (MIC, μg/mL) of the other human-originated EGF domain proteins (PRT2 to PRT1498 in Table 1) for E. coli DH5α were determined.

Proteus mirabilis = test: MIC against Gram-negative bacteria: Proteus mirabilis; settings: 5×10^5 CFU/mL; for MIC (μg/mL) P. mirabilis: 10 h cultivation at 37° C.
Procedure: as §1, §2, §3, §4

Molecule	MIC (E. coli DH5α) [mg/L]	MIC (μg/mL) A. hydrophila (Aeromonas hydrophila) [µg/mL]	MIC (μg/mL) M. catarrhalis (Moraxella catarrhalis) [µg/mL]	MIC (μg/mL) P. aeruginosa (Pseudomonas aeruginosa) [µg/mL]	MIC (μg/mL) C. diversus (Citrobacter diversus) [µg/mL]	MIC (μg/mL) P. vulgaris (Proteus vulgaris) [µg/mL]	MIC (μg/mL) E. cloacae (Enterobacter cloacae) [µg/mL]	MIC (μg/mL) S. marcescens (Serratia marcescens) [µg/mL]	MIC (μg/mL) K. pneumonia (Klebsiella pneumonia) [µg/mL]	MIC (μg/mL) E. coli BL21 (E. coli BL21) [µg/mL]	MIC (μg/mL) P. mirabilis (Proteus mirabilis) [µg/mL]	also measured
PRT598 (protein, listed as Homo sapiens) CSCNSHSSRCHFDMTTYLASGGLSGGVCEDCQHNTEGQHCDRCRPLFYRDPLKTISDPYACIP	25											MIC A. hydrophila (Aeromonas hydrophila; 96-well plate, 37° C., 10 h): 25 mg/L; MIC M. catarrhalis (Moraxella catarrhalis; 96-well plate, 37° C., 10 h): 25 mg/L; MIC P. aeruginosa (Pseudomonas aeruginosa; 96-well plate, 37° C., 10 h): 12.5 mg/L; MIC C. diversus (Citrobacter diversus; 96-well plate, 37° C., 10 h): 50 mg/L; MIC P. vulgaris (Proteus vulgaris; 96-well plate, 37° C., 10 h): 50 mg/L; MIC E. cloacae (Enterobacter cloacae; 96-well plate, 37° C., 10 h): 12.5 mg/L; MIC S. marcescens (Serratia marcescens; 96-well plate, 37° C., 10 h): 25 mg/L; MIC K. pneumonia (Klebsiella pneumonia; 96-well plate, 37° C., 10 h): 50 mg/L; MIC E. coli BL21 (E. coli BL21; 96-well plate, 37° C., 10 h): 50 mg/L; MIC P. mirabilis (Proteus mirabilis; 96-well plate, 37° C., 10 h): 12.5 mg/L
PRT863 (protein, listed as Homo sapiens) CFCNGHADQCIPVHGFRPVKAPGTFHMVHGKCMCKHNTAGSHCQHCAPLYNDRPWEAADGKTGAPNECRT	50	12.5	12.5	25	12.5	25	12.5	12.5	50	12.5	12.5	
PRT845 (protein, listed as Homo sapiens) CQCNGHADTCNEQDGTGCPCQNNTETGTCQGSSPSDRRDCYKYQCAKCRESFHGSPLGGQQCYR	25	25	25	25	12.5	12.5	12.5	50	25	12.5	12.5	
PRT864 (protein, listed as Homo sapiens) CKCNGHADTCHFDVNVWEASGNRSGGVCDDCQHNTEGQYCQRCKPGFYRDLRRPFSAPDACKP	12.5	25	25	12.5	12.5	12.5	50	50	25	12.5	50	

Reference: US9833497B2, “Human originated EGF domain proteins and use of the same” (CHENGDU SOURCEBIO LIMITED-LIABILITY COMPANY, priority 2013, dated 2017)
